Tests used:
Assay in all cases: flow cytometry on cells
[1] = target: Bovine2.2 L93TAG scFv with OPG
[2] = target: Bovine2.2 L93TAG scFv with AzF
[3] = target: Bovine2.2 H54TAG scFv with OPG
[4] = target: Bovine2.2 H31TAG scFv with AzF
[5] = target: Bovine2.2 H31TAG scFv with OPG
[6] = target: Bovine2.2 H54TAG scFv with AzF
[7] = target: Donkey1.1 H31TAG scFv with AzMF
[8] = target: Donkey1.1 L93TAG scFv with AzF
[9] = target: Donkey1.1 L93TAG scFv with OPG
[10] = target: Donkey1.1 H31TAG scFv with AzF
[11] = target: Donkey1.1 H54TAG scFv with AzF
[12] = target: Donkey1.1 H31TAG scFv with OPG
[13] = target: Donkey1.1 H54TAG scFv with OPG

biotinylated bovine IgG (natural protein)
Kd [1]: 0.179 µM
Kd [2]: 0.332 µM
Kd [3]: 0.183 µM
Kd [4]: 0.546 µM
Kd [5]: 0.601 µM
Kd [6]: 0.38 µM

biotinylated donkey IgG (natural protein)
antigen binding level relative to wild-type at 200 nM IgG (% of wild-type) [7]: < 10
Kd [8]: 0.125 µM
Kd [9]: 0.045 µM
Kd [10]: 0.561 µM
antigen binding level relative to wild-type at 200 nM IgG (% of wild-type) [10]: < 10
Kd [11]: 0.213 µM
Kd [12]: 0.365 µM
antigen binding level relative to wild-type at 200 nM IgG (% of wild-type) [12]: < 10
Kd [13]: 0.0558 µM

Reference: paper PMC8096149
